# Experimental data from IntAct's records for PubMed 31515488.
# B1: ATP synthase mitochondrial F1 complex assembly factor 2 (Homo sapiens), Q8N5M1 (parent)
# chain: MWRSCLRLRDGGRRLLNRPAGGPSASMSPGPTIPSPARAYAPPTERKRFYQNVSITQGEGGFEINLDHRKLKTPQAKLFTVPSEALAIAVATEWDSQQDTIKYYTMHLTTLCNTSLDNPTQRNKDQLIRAAVKFLDTDTICYRVEEPETLVELQRNEWDPIIEWAEKRYGVEISSSTSIMGPSIPAKTREVLVSHLASYNTWALQGIEFVAAQLKSMVLTLGLIDLRLTVEQAVLLSRLEEEYQIQKWGNIEWAHDYELQELRARTAAGTLFIHLCSESTTVKHKLLKE
# partner: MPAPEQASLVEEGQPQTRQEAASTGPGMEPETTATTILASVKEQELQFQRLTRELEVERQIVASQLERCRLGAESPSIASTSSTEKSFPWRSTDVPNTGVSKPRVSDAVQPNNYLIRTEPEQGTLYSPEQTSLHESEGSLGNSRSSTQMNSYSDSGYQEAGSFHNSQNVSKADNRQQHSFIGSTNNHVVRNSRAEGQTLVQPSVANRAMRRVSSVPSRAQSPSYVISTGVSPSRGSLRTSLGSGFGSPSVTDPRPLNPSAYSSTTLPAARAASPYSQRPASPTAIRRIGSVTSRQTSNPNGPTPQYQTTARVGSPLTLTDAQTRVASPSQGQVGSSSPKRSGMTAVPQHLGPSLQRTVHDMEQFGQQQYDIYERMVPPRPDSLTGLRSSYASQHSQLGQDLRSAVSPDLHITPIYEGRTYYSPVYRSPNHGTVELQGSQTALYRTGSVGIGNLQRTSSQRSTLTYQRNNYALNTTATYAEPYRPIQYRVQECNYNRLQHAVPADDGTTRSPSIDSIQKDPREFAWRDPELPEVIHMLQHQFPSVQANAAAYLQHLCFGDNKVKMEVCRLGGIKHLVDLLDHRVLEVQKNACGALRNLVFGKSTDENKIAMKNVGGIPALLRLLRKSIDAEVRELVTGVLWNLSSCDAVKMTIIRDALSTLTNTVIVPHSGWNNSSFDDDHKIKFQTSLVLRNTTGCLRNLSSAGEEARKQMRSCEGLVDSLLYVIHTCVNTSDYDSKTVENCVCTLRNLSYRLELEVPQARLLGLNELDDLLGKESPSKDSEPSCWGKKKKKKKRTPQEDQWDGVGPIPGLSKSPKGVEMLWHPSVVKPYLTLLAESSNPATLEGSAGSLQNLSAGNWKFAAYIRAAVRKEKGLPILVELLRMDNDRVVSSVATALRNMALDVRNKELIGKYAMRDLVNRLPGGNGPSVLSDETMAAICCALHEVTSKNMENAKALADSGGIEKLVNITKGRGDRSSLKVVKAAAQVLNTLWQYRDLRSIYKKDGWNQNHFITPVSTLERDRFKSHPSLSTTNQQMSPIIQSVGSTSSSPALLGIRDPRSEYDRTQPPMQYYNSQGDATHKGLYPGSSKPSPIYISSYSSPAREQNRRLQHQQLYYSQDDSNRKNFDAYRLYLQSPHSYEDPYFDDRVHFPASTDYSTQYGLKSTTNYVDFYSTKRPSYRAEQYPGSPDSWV
# B2: Hyaluronan mediated motility receptor (Homo sapiens), O75330 (parent)
# chain: MSFPKAPLKRFNDPSGCAPSPGAYDVKTLEVLKGPVSFQKSQRFKQQKESKQNLNVDKDTTLPASARKVKSSESKESQKNDKDLKILEKEIRVLLQERGAQDRRIQDLETELEKMEARLNAALREKTSLSANNATLEKQLIELTRTNELLKSKFSENGNQKNLRILSLELMKLRNKRETKMRGMMAKQEGMEMKLQVTQRSLEESQGKIAQLEGKLVSIEKEKIDEKSETEKLLEYIEEISCASDQVEKYKLDIAQLEENLKEKNDEILSLKQSLEENIVILSKQVEDLNVKCQLLEKEKEDHVNRNREHNENLNAEMQNLKQKFILEQQEREKLQQKELQIDSLLQQEKELSSSLHQKLCSFQEEMVKEKNLFEEELKQTLDELDKLQQKEEQAERLVKQLEEEAKSRAEELKLLEEKLKGKEAELEKSSAAHTQATLLLQEKYDSMVQSLEDVTAQFESYKALTASEIEDLKLENSSLQEKAAKAGKNAEDVQHQILATESSNQEYVRMLLDLQTKSALKETEIKEITVSFLQKITDLQNQLKQQEEDFRKQLEDEEGRKAEKENTTAELTEEINKWRLLYEELYNKTKPFQLQLDAFEVEKQALLNEHGAAQEQLNKIRDSYAKLLGHQNLKQKIKHVVKLKDENSQLKSEVSKLRCQLAKKKQSETKLQEELNKVLGIKHFDPSKAFHHESKENFALKTPLKEGNTNCYRAPMECQESWK
# B3: Nebulette (Homo sapiens), O76041 (parent)
# chain: MRVPVFEDIKDETEEEKIGEEENEEDQVFYKPVIEDLSMELARKCTELISDIRYKEEFKKSKDKCTFVTDSPMLNHVKNIGAFISEAKYKGTIKADLSNSLYKRMPATIDSVFAGEVTQLQSEVAYKQKHDAAKGFSDYAHMKEPPEVKHAMEVNKHQSNISYRKDVQDTHTYSAELDRPDIKMATQISKIISNAEYKKGQGIMNKEPAVIGRPDFEHAVEASKLSSQIKYKEKFDNEMKDKKHHYNPLESASFRQNQLAATLASNVKYKKDIQNMHDPVSDLPNLLFLDHVLKASKMLSGREYKKLFEENKGMYHFDADAVEHLHHKGNAVLQSQVKYKEEYEKNKGKPMLEFVETPSYQASKEAQKMQSEKVYKEDFEKEIKGRSSLDLDKTPEFLHVKYITNLLREKEYKKDLENEIKGKGMELNSEVLDIQRAKRASEMASEKEYKKDLESIIKGKGMQAGTDTLEMQHAKKAAEIASEKDYKRDLETEIKGKGMQVSTDTLDVQRAKKASEMASQKQYKKDLENEIKGKGMQVSMDIPDILRAKRTSEIYSQRKYKDEAEKMLSNYSTIADTPEIQRIKTTQQNISAVFYKKEVGAGTAVKDSPEIERVKKNQQNISSVKYKEEIKHATAISDPPELKRVKENQKNISNLQYKEQNYKATPVSMTPEIERVRRNQEQLSAVKYKGELQRGTAISDPPELKRAKENQKNISNVYYRGQLGRATTLSVTPEMERVKKNQENISSVKYTQDHKQMKGRPSLILDTPAMRHVKEAQNHISMVKYHEDFEKTKGRGFTPVVDDPVTERVRKNTQVVSDAAYKGVHPHIVEMDRRPGIIVDLKVWRTDPGSIFDLDPLEDNIQSRSLHMLSEKASHYRRHWSRSHSSSTFGTGLGDDRSEISEIYPSFSCCSEVTRPSDEGAPVLPGAYQQSHSQGYGYMHQTSVSSMRSMQHSPNLRTYRAMYDYSAQDEDEVSFRDGDYIVNVQPIDDGWMYGTVQRTGRTGMLPANYIEFVN
# partner: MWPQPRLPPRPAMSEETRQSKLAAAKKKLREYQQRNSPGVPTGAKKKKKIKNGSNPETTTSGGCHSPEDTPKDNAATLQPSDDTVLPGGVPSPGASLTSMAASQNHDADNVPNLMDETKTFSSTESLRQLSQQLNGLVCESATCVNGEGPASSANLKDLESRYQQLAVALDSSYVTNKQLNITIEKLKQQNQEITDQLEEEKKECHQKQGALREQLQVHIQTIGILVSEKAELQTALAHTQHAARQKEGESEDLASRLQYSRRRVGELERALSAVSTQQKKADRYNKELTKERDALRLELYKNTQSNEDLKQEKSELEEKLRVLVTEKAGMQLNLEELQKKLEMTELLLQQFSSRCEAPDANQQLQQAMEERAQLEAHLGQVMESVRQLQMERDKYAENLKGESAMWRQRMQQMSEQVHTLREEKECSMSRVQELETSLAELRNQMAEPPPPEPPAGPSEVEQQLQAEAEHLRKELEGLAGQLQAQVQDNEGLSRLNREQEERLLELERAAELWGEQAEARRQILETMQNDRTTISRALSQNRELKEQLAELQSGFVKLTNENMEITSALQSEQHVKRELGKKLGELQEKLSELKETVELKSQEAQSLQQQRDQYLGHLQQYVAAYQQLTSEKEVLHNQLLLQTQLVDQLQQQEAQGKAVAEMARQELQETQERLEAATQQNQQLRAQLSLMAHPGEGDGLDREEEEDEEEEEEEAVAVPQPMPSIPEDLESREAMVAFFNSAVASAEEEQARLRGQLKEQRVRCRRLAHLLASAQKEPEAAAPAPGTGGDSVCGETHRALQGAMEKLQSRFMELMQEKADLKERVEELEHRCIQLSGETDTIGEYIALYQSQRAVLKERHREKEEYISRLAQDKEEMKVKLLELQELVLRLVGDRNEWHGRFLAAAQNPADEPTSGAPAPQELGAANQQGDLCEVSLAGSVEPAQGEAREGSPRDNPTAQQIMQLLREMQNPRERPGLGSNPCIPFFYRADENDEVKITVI
# B4: E3 ubiquitin-protein ligase TRAIP (Homo sapiens), Q9BWF2 (parent)
# chain: MPIRALCTICSDFFDHSRDVAAIHCGHTFHLQCLIQWFETAPSRTCPQCRIQVGKRTIINKLFFDLAQEEENVLDAEFLKNELDNVRAQLSQKDKEKRDSQVIIDTLRDTLEERNATVVSLQQALGKAEMLCSTLKKQMKYLEQQQDETKQAQEEARRLRSKMKTMEQIELLLQSQRPEVEEMIRDMGVGQSAVEQLAVYCVSLKKEYENLKEARKASGEVADKLRKDLFSSRSKLQTVYSELDQAKLELKSAQKDLQSADKEIMSLKKKLTMLQETLNLPPVASETVDRLVLESPAPVEVNLKLRRPSFRDDIDLNATFDVDTPPARPSSSQHGYYEKLCLEKSHSPIQDVPKKICKGPRKESQLSLGGQSCAGEPDEELVGAFPIFVRNAILGQKQPKRPRSESSCSKDVVRTGFDGLGGRTKFIQPTDTVMIRPLPVKPKTKVKQRVRVKTVPSLFQAKLDTFLWS
# B5: Zinc finger protein 473 (Homo sapiens), Q8WTR7 (parent)
# chain: MAEEFVTLKDVGMDFTLGDWEQLGLEQGDTFWDTALDNCQDLFLLDPPRPNLTSHPDGSEDLEPLAGGSPEATSPDVTETKNSPLMEDFFEEGFSQEIIEMLSKDGFWNSNFGEACIEDTWLDSLLGDPESLLRSDIATNGESPTECKSHELKRGLSPVSTVSTGEDSMVHNVSEKTLTPAKSKEYRGEFFSYSDHSQQDSVQEGEKPYQCSECGKSFSGSYRLTQHWITHTREKPTVHQECEQGFDRNASLSVYPKTHTGYKFYVCNEYGTTFSQSTYLWHQKTHTGEKPCKSQDSDHPPSHDTQPGEHQKTHTDSKSYNCNECGKAFTRIFHLTRHQKIHTRKRYECSKCQATFNLRKHLIQHQKTHAAKTTSECQECGKIFRHSSLLIEHQALHAGEEPYKCNERGKSFRHNSTLKIHQRVHSGEKPYKCSECGKAFHRHTHLNEHRRIHTGYRPHKCQECVRSFSRPSHLMRHQAIHTAEKPYSCAECKETFSDNNRLVQHQKMHTVKTPYECQECGERFICGSTLKCHESVHAREKQGFFVSGKILDQNPEQKEKCFKCNKCEKTFSCSKYLTQHERIHTRGVKPFECDQCGKAFGQSTRLIHHQRIHSRVRLYKWGEQGKAISSASLIKLQSFHTKEHPFKCNECGKTFSHSAHLSKHQLIHAGENPFKCSKCDRVFTQRNYLVQHERTHARKKPLVCNECGKTFRQSSCLSKHQRIHSGEKPYVCDYCGKAFGLSAELVRHQRIHTGEKPYVCQECGKAFTQSSCLSIHRRVHTGEKPYRCGECGKAFAQKANLTQHQRIHTGEKPYSCNVCGKAFVLSAHLNQHLRVHTQETLYQCQRCQKAFRCHSSLSRHQRVHNKQQYCL
# partner: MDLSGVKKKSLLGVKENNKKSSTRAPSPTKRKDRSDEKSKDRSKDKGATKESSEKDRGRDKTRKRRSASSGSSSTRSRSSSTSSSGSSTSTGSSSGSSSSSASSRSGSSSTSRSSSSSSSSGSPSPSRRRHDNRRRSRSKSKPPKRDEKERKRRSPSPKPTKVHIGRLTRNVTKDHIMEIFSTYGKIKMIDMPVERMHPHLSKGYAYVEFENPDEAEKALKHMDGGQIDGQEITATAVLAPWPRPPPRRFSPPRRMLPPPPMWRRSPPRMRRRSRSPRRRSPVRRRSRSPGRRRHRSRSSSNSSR
# Variants of: B1
# Details: with pkp4_human PKP4, Q99569
row,effect of a mutation on the interaction,Variant
1,with no effect,E241G

# Variants of: B2
# Details: with morn4_human MORN4, Q8NDC4
# morn4_human MORN4, Q8NDC4, sequence (Q8NDC4 whole entry): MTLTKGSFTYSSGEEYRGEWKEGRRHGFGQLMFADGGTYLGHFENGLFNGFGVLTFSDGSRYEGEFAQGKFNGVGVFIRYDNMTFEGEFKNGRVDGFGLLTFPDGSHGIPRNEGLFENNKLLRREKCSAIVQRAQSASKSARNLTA
row,effect of a mutation on the interaction,Variant
1,with no effect,V368A
2,with no effect,S468G

# Variants of: B3
# Details: with goga2_human GOLGA2, Q08379
row,effect of a mutation on the interaction,Variant
1,with no effect,M351V
2,with no effect,R613Q

# Variants of: B4
# Details: with mare2_human MAPRE2, Q15555
# mare2_human MAPRE2, Q15555, sequence (Q15555 whole entry): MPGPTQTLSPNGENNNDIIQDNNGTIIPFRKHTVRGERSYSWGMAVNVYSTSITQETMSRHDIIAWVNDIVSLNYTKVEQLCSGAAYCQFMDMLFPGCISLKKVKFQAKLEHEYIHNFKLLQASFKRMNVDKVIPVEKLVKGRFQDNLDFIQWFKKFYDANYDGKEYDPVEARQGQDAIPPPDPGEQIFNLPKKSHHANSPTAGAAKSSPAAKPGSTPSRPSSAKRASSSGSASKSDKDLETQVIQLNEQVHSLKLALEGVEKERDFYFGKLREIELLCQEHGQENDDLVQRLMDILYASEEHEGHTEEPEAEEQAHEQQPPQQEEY
row,effect of a mutation on the interaction,Variant
1,with no effect,Q428H

# Variants of: B5
# Details: with rnps1_human RNPS1, Q15287
row,effect of a mutation on the interaction,Variant
1,with no effect,N82S
2,with no effect,Y456H
3,with no effect,S535N
4,with no effect,T654I
5,with no effect,R223C
